The results in this text go back to paper PMC7611124.

Data set [1] addresses T1, NF-kB p50 (UniProt P19838 1-433). In words: EMSA. A general note: A gel shift assay detects complexes by their altered migration in electrophoresis.
Data set [2] concerns the target T1, NF-kB p50. Kind of data set: competition.

T1 sequence (P19838 1-433): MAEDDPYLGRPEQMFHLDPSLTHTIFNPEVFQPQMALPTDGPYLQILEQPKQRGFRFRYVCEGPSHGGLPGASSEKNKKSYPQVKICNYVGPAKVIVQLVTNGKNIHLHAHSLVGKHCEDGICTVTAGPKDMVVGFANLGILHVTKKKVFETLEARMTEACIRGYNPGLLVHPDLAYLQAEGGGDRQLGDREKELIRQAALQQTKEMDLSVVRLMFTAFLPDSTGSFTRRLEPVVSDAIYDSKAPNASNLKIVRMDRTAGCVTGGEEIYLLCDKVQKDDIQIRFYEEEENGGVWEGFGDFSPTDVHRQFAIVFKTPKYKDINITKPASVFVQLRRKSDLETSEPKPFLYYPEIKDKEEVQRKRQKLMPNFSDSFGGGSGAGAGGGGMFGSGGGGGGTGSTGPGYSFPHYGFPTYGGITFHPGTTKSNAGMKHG

B1: Probe C (rs28416813 C allele, IFNL3 5'UTR) (dsDNA)
DNA 1: CCCCTGCCCTCAGTGGGCAGCCTCTGCATTCCCTCAGCTCCCTTTCTCTCTGTGA
DNA 2: TCACAGAGAGAAAGGGAGCTGAGGGAATGCAGAGGCTGCCCACTGAGGGCAGGGG
modifications: BrdU (written T) at positions 5 and 34 of strand 1
Consider B1, for which, in the data set with NF-kB p50 [1], the binding result was “binds”.

B2: C-oligo NF-kB (consensus cold competitor) (dsDNA)
DNA 1: CCGCTGGGACTTTCCAGGA
DNA 2: TCCTGGAAAGTCCCAGCGG
Take B2: in the data set with NF-kB p50 [2], the binding result is recorded as “binds”.
